Experimental data from patent US20260116944A1, “NOVEL TRIPLE GLP-1/GIP/GLUCAGON RECEPTOR AGONIST AND A PHARMACEUTICAL COMPOSITION FOR PREVENTING OR TREATING OBESITY COMPRISING THE SAME” (HANMI PHARM. CO., LTD., priority 2022, published 2026).
*1 amine or outer side, *2 acyl side, *3 side chain or, on linkers, in order; H or OH if unused. Bridges are numbered along the chain shown (N, C = ends). Where no end group is shown, it is not given here. Side-chain parts run from the residue outwards. [ ]: non-standard residue; d: D form. The star is where a group is joined. C20 diacid = O=C(O)CCCCCCCCCCCCCCCCCCC(=O)*; C18 diacid = O=C(O)CCCCCCCCCCCCCCCCC(=O)*; γGlu = O=C(O)[C@H](CCC(=O)[*:2])N[*:1]; AEEA = NCCOCCOCC(=O)O; Aib = CC(C)(N)C(=O)O

T1: human GIP receptor (human, UniProt P48546 22-466)
T1 sequence (looked up): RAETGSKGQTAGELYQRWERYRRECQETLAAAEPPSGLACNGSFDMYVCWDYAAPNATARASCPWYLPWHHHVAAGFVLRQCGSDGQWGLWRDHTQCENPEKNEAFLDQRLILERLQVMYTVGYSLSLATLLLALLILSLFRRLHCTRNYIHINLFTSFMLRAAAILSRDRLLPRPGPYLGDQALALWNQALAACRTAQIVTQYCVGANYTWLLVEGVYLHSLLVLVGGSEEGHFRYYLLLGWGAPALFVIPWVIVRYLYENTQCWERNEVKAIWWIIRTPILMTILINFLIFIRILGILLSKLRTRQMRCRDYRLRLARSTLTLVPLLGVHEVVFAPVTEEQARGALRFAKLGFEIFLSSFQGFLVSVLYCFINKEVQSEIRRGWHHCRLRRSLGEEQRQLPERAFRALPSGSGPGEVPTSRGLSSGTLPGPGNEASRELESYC

B1: triple agonist of SEQ ID NO: 2 (peptide)
peptide: Y[Aib]QGTFTSDYSK([AEEA-AEEA-γGlu-C20 diacid])YLDEKRAKEFVQWLLDHHPSSGQPPPS-NH2
modifications: lactam 16-20; N-terminus assumed
SMILES: CC(C)C[C@H](NC(=O)[C@H](Cc1ccc(O)cc1)NC(=O)[C@H](CCCCNC(=O)COCCOCCNC(=O)COCCOCCNC(=O)CC[C@H](NC(=O)CCCCCCCCCCCCCCCCCCC(=O)O)C(=O)O)NC(=O)[C@H](CO)NC(=O)[C@H](Cc1ccc(O)cc1)NC(=O)[C@H](CC(=O)O)NC(=O)[C@H](CO)NC(=O)[C@@H](NC(=O)[C@H](Cc1ccccc1)NC(=O)[C@@H](NC(=O)CNC(=O)[C@H](CCC(N)=O)NC(=O)C(C)(C)NC(=O)[C@@H](N)Cc1ccc(O)cc1)[C@@H](C)O)[C@@H](C)O)C(=O)N[C@@H](CC(=O)O)C(=O)N[C@H]1CCC(=O)NCCCC[C@@H](C(=O)N[C@@H](CCC(=O)O)C(=O)N[C@@H](Cc2ccccc2)C(=O)N[C@H](C(=O)N[C@@H](CCC(N)=O)C(=O)N[C@@H](Cc2c[nH]c3ccccc23)C(=O)N[C@@H](CC(C)C)C(=O)N[C@@H](CC(C)C)C(=O)N[C@@H](CC(=O)O)C(=O)N[C@@H](Cc2c[nH]cn2)C(=O)N[C@@H](Cc2c[nH]cn2)C(=O)N2CCC[C@H]2C(=O)N[C@@H](CO)C(=O)N[C@@H](CO)C(=O)NCC(=O)N[C@@H](CCC(N)=O)C(=O)N2CCC[C@H]2C(=O)N2CCC[C@H]2C(=O)N2CCC[C@H]2C(=O)N[C@@H](CO)C(N)=O)C(C)C)NC(=O)[C@H](C)NC(=O)[C@H](CCCNC(=N)N)NC(=O)[C@H](CCCCN)NC1=O
B2: triple agonist of SEQ ID NO: 8 (peptide)
peptide: Y[Aib]QGTFTSDYSK([AEEA-AEEA-γGlu-C18 diacid])YLDEKRAKEFVQWLLDHHPSSGQPPPS-NH2
modifications: lactam 16-20; N-terminus assumed
SMILES: CC(C)C[C@H](NC(=O)[C@H](Cc1ccc(O)cc1)NC(=O)[C@H](CCCCNC(=O)COCCOCCNC(=O)COCCOCCNC(=O)CC[C@H](NC(=O)CCCCCCCCCCCCCCCCC(=O)O)C(=O)O)NC(=O)[C@H](CO)NC(=O)[C@H](Cc1ccc(O)cc1)NC(=O)[C@H](CC(=O)O)NC(=O)[C@H](CO)NC(=O)[C@@H](NC(=O)[C@H](Cc1ccccc1)NC(=O)[C@@H](NC(=O)CNC(=O)[C@H](CCC(N)=O)NC(=O)C(C)(C)NC(=O)[C@@H](N)Cc1ccc(O)cc1)[C@@H](C)O)[C@@H](C)O)C(=O)N[C@@H](CC(=O)O)C(=O)N[C@H]1CCC(=O)NCCCC[C@@H](C(=O)N[C@@H](CCC(=O)O)C(=O)N[C@@H](Cc2ccccc2)C(=O)N[C@H](C(=O)N[C@@H](CCC(N)=O)C(=O)N[C@@H](Cc2c[nH]c3ccccc23)C(=O)N[C@@H](CC(C)C)C(=O)N[C@@H](CC(C)C)C(=O)N[C@@H](CC(=O)O)C(=O)N[C@@H](Cc2c[nH]cn2)C(=O)N[C@@H](Cc2c[nH]cn2)C(=O)N2CCC[C@H]2C(=O)N[C@@H](CO)C(=O)N[C@@H](CO)C(=O)NCC(=O)N[C@@H](CCC(N)=O)C(=O)N2CCC[C@H]2C(=O)N2CCC[C@H]2C(=O)N2CCC[C@H]2C(=O)N[C@@H](CO)C(N)=O)C(C)C)NC(=O)[C@H](C)NC(=O)[C@H](CCCNC(=N)N)NC(=O)[C@H](CCCCN)NC1=O
B3: triple agonist of SEQ ID NO: 3 (peptide)
peptide: Y[Aib]QGTFTSDYSK([AEEA-AEEA-γGlu-C20 diacid])YLDEKAAKDFVQWLLDQHPSSGQPPPS-NH2
modifications: lactam 16-20; N-terminus assumed
SMILES: CC(C)C[C@H](NC(=O)[C@H](Cc1ccc(O)cc1)NC(=O)[C@H](CCCCNC(=O)COCCOCCNC(=O)COCCOCCNC(=O)CC[C@H](NC(=O)CCCCCCCCCCCCCCCCCCC(=O)O)C(=O)O)NC(=O)[C@H](CO)NC(=O)[C@H](Cc1ccc(O)cc1)NC(=O)[C@H](CC(=O)O)NC(=O)[C@H](CO)NC(=O)[C@@H](NC(=O)[C@H](Cc1ccccc1)NC(=O)[C@@H](NC(=O)CNC(=O)[C@H](CCC(N)=O)NC(=O)C(C)(C)NC(=O)[C@@H](N)Cc1ccc(O)cc1)[C@@H](C)O)[C@@H](C)O)C(=O)N[C@@H](CC(=O)O)C(=O)N[C@H]1CCC(=O)NCCCC[C@@H](C(=O)N[C@@H](CC(=O)O)C(=O)N[C@@H](Cc2ccccc2)C(=O)N[C@H](C(=O)N[C@@H](CCC(N)=O)C(=O)N[C@@H](Cc2c[nH]c3ccccc23)C(=O)N[C@@H](CC(C)C)C(=O)N[C@@H](CC(C)C)C(=O)N[C@@H](CC(=O)O)C(=O)N[C@@H](CCC(N)=O)C(=O)N[C@@H](Cc2c[nH]cn2)C(=O)N2CCC[C@H]2C(=O)N[C@@H](CO)C(=O)N[C@@H](CO)C(=O)NCC(=O)N[C@@H](CCC(N)=O)C(=O)N2CCC[C@H]2C(=O)N2CCC[C@H]2C(=O)N2CCC[C@H]2C(=O)N[C@@H](CO)C(N)=O)C(C)C)NC(=O)[C@H](C)NC(=O)[C@H](C)NC(=O)[C@H](CCCCN)NC1=O
B4: triple agonist of SEQ ID NO: 9 (peptide)
peptide: Y[Aib]QGTFTSDYSK([AEEA-AEEA-γGlu-C18 diacid])YLDEKAAKEFVQWLLDHHPSSGQPPPS-NH2
modifications: lactam 16-20; N-terminus assumed
SMILES: CC(C)C[C@H](NC(=O)[C@H](Cc1ccc(O)cc1)NC(=O)[C@H](CCCCNC(=O)COCCOCCNC(=O)COCCOCCNC(=O)CC[C@H](NC(=O)CCCCCCCCCCCCCCCCC(=O)O)C(=O)O)NC(=O)[C@H](CO)NC(=O)[C@H](Cc1ccc(O)cc1)NC(=O)[C@H](CC(=O)O)NC(=O)[C@H](CO)NC(=O)[C@@H](NC(=O)[C@H](Cc1ccccc1)NC(=O)[C@@H](NC(=O)CNC(=O)[C@H](CCC(N)=O)NC(=O)C(C)(C)NC(=O)[C@@H](N)Cc1ccc(O)cc1)[C@@H](C)O)[C@@H](C)O)C(=O)N[C@@H](CC(=O)O)C(=O)N[C@H]1CCC(=O)NCCCC[C@@H](C(=O)N[C@@H](CCC(=O)O)C(=O)N[C@@H](Cc2ccccc2)C(=O)N[C@H](C(=O)N[C@@H](CCC(N)=O)C(=O)N[C@@H](Cc2c[nH]c3ccccc23)C(=O)N[C@@H](CC(C)C)C(=O)N[C@@H](CC(C)C)C(=O)N[C@@H](CC(=O)O)C(=O)N[C@@H](Cc2c[nH]cn2)C(=O)N[C@@H](Cc2c[nH]cn2)C(=O)N2CCC[C@H]2C(=O)N[C@@H](CO)C(=O)N[C@@H](CO)C(=O)NCC(=O)N[C@@H](CCC(N)=O)C(=O)N2CCC[C@H]2C(=O)N2CCC[C@H]2C(=O)N2CCC[C@H]2C(=O)N[C@@H](CO)C(N)=O)C(C)C)NC(=O)[C@H](C)NC(=O)[C@H](C)NC(=O)[C@H](CCCCN)NC1=O

Target: human GCG receptor (human, UniProt P47871 26-477)
Sequence (P47871 26-477): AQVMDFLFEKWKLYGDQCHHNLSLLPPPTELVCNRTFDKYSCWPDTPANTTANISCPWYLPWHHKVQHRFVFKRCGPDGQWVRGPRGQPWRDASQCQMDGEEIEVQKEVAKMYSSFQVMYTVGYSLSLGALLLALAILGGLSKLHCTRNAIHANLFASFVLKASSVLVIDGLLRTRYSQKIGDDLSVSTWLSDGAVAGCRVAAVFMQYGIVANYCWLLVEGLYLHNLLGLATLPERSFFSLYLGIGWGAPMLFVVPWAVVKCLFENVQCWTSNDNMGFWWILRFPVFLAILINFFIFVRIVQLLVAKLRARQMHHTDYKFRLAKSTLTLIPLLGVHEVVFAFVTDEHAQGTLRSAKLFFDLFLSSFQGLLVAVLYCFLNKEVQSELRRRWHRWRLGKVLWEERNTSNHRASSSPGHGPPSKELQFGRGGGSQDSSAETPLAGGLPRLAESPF
Assay: cell-based or functional assay
Conditions: not given

Row | In vitro Activity Compared to Native Peptide (%) vs. Glucagon (relative titer from cAMP EC50) | Molecule
1 | 3.35 % of human GCG | B1
2 | 5.89 % of human GCG | B2
3 | 0.4 % of human GCG | B3
4 | 0.51 % of human GCG | B4

Target: human GLP-1 receptor (human, UniProt P43220 24-463)
Assay: cell-based or functional assay
Conditions: not given

Row | In vitro Activity Compared to Native Peptide (%) vs. GLP-1 (relative titer from cAMP EC50) | Molecule
5 | 3.87 % of human GLP-1 | B1
6 | 9.68 % of human GLP-1 | B2
7 | 5.52 % of human GLP-1 | B3
8 | 15 % of human GLP-1 | B4

Target: T1, human GIP receptor
Assay: cell-based or functional assay
Conditions: not given

Row | In vitro Activity Compared to Native Peptide (%) vs. GIP (relative titer from cAMP EC50) | Molecule
9 | 2.17 % of human GIP | B1
10 | 4.89 % of human GIP | B2
11 | 7.04 % of human GIP | B3
12 | 8.42 % of human GIP | B4

System: not listed separately
Assay: Weight loss effect in AMLN diet-induced obese mice
Assay type: in vivo
Conditions: 351 ug/kg, Q2D, subcutaneously, 2 weeks, vs. excipient control, p<0.001 one-way ANOVA, FIG. 1
Experimental: In order to confirm the weight loss effect of each of the three triple agonists of SEQ ID NO: 1, SEQ ID NO: 2, and SEQ ID NO: 4 prepared in the Example above, an AMLN (amylin) mouse model, known as an obesity model, was used. AMLN diet-induced mice were divided into an excipient control group and groups administered with three types of triple agonists (351 ug/kg, Q2D, subcutaneously), and the administration was repeated for 2 weeks.
After repeated administration for 2 weeks, the body weight was measured, and the change in body weight relative to the body weight immediately before administration (DO) was measured to evaluate weight loss effect.

Row | Molecule | weight loss efficacy (change in body weight relative to immediately before administration)
13 | Y-Aib-QGTFTSDYSK(1)YLDEKRAKEFVQWLLDHHPSSGQPPPS (Y[Aib]QGTFTSDYSK([AEEA-AEEA-γGlu-C20 diacid])YLDEKRAKEFVQWLLDHHPSSGQPPPS-NH2; lactam 16-20; N-terminus assumed; SMILES CC(C)C[C@H](NC(=O)[C@H](Cc1ccc(O)cc1)NC(=O)[C@H](CCCCNC(=O)COCCOCCNC(=O)COCCOCCNC(=O)CC[C@H](NC(=O)CCCCCCCCCCCCCCCCCCC(=O)O)C(=O)O)NC(=O)[C@H](CO)NC(=O)[C@H](Cc1ccc(O)cc1)NC(=O)[C@H](CC(=O)O)NC(=O)[C@H](CO)NC(=O)[C@@H](NC(=O)[C@H](Cc1ccccc1)NC(=O)[C@@H](NC(=O)CNC(=O)[C@H](CCC(N)=O)NC(=O)C(C)(C)NC(=O)[C@@H](N)Cc1ccc(O)cc1)[C@@H](C)O)[C@@H](C)O)C(=O)N[C@@H](CC(=O)O)C(=O)N[C@H]1CCC(=O)NCCCC[C@@H](C(=O)N[C@@H](CCC(=O)O)C(=O)N[C@@H](Cc2ccccc2)C(=O)N[C@H](C(=O)N[C@@H](CCC(N)=O)C(=O)N[C@@H](Cc2c[nH]c3ccccc23)C(=O)N[C@@H](CC(C)C)C(=O)N[C@@H](CC(C)C)C(=O)N[C@@H](CC(=O)O)C(=O)N[C@@H](Cc2c[nH]cn2)C(=O)N[C@@H](Cc2c[nH]cn2)C(=O)N2CCC[C@H]2C(=O)N[C@@H](CO)C(=O)N[C@@H](CO)C(=O)NCC(=O)N[C@@H](CCC(N)=O)C(=O)N2CCC[C@H]2C(=O)N2CCC[C@H]2C(=O)N2CCC[C@H]2C(=O)N[C@@H](CO)C(N)=O)C(C)C)NC(=O)[C@H](C)NC(=O)[C@H](CCCNC(=N)N)NC(=O)[C@H](CCCCN)NC1=O) [SEQ ID NO: 2, acylated triple agonist peptide, K(1) at position 12, lactam bridge E16-K20] | significant weight loss efficacy
